Assay results published in PMC4694753 (Molecular Biology of the Cell, 2016).

Biological target: GFP-VASP (UniProt P50552 1-380)
Assay: co-IP

GFP-VASP, sequence (P50552 whole entry): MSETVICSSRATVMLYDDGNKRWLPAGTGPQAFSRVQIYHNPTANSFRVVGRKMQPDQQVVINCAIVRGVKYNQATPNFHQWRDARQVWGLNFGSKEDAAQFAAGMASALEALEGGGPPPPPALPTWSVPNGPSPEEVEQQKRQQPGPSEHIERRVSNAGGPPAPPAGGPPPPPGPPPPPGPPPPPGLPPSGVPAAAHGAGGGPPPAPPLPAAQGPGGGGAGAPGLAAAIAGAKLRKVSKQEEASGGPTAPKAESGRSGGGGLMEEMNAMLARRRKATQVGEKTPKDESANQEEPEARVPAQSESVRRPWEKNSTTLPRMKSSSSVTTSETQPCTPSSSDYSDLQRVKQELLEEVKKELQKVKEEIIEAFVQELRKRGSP

amount coimmunoprecipitated, % relative to GFP-Mena: 8.2 ± 3.3%
B1: endogenous GRASP65 (natural protein)
chain: not shown
